Data published in publication PMC12766925, “Functional assembly of the Qc-SNARE with Sec18 and Sec17 on membranes” (Molecular Biology of the Cell, 2025).

How the values were obtained:
His6-Sec18 = target: T1, His6-Sec18 (yeast (Saccharomyces Genome Database …, UniProt P18759 1-758)); experiment: liposome floatation (density gradient) with immunoblot; protein-free VML liposomes, 1 mM Mg:ATPyS, where indicated 1 µM Sec17, 250 nM Sec18, 2 µM Qc; Rb150, 27°C 1 h; floated through Histodenz; bound proteins by Western blot; conditions: both partners purified
T1 construct: Sec18, yeast, YBR080C; construct from Haas and Wickner, 1996; also called Sec18/NSF; source: E. coli XL1 Blue/pQE9-His6-Sec18, purified (Ni-NTA, Superdex 200)
T1 sequence (looked up): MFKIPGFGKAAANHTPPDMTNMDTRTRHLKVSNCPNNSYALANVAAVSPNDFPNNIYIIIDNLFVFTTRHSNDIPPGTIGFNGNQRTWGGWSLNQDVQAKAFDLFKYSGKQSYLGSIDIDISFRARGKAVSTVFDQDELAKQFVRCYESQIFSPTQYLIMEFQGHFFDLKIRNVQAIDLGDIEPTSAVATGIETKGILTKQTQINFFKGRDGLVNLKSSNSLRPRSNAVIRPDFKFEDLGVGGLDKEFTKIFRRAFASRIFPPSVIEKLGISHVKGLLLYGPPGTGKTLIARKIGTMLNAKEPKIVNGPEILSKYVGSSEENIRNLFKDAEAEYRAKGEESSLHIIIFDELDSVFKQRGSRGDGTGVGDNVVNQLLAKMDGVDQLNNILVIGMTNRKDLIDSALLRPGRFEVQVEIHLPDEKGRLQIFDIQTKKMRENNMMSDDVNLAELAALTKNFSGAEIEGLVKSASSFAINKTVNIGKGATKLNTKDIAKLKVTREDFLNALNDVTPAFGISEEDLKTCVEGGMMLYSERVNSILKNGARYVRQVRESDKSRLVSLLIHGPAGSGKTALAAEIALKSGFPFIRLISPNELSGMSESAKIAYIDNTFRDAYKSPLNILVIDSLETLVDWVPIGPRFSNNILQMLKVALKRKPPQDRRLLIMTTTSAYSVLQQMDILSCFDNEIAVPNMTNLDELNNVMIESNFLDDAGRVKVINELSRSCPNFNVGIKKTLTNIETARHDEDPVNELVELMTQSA

[1] = target: T2, complex of RQaQb on proteoliposomes (yeast (Saccharomyces Genome Database …, UniProt Q12255 1-253; Q12241 1-283; Q04338 1-217); experiment: liposome floatation (density gradient) with immunoblot; VML proteoliposomes with no SNAREs, single or several anchored SNAREs (1:2000 to lipid), 0.5 mM lipid, 1 µM added Sec17, Rb150, 0.04% defatted BSA, 1 mM MgCl2, 27°C 1 h; floated through Histodenz; bound Sec17 by Western blot; conditions: both partners purified
T2 construct: Nyv1 (R SNARE), yeast, YLR093C; as m5; Vam3 (Qa SNARE), yeast, YOR106W; as m6; Vti1 (Qb SNARE), yeast, YMR197C; as m7; also called R, Qa, and Qb; source: purified SNAREs (Mima et al., 2008) reconstituted together into VML proteoliposomes; copies: + +
T2 sequence (Q12255 whole entry, chain 1 of 3): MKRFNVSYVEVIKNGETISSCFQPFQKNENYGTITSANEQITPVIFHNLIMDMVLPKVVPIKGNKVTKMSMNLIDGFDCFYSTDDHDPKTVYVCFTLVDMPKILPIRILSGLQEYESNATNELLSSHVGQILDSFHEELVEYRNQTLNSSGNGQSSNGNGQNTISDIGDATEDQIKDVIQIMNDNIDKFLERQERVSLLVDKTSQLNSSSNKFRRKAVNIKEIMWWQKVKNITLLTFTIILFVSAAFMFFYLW
T2 sequence (Q12241 whole entry, chain 2 of 3): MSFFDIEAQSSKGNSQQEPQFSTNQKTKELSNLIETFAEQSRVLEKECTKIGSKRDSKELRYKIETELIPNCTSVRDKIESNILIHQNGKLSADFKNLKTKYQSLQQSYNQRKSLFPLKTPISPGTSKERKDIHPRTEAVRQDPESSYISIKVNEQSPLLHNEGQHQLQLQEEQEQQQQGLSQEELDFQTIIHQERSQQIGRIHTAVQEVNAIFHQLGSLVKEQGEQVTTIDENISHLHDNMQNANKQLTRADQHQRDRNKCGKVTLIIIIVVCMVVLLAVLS
T2 sequence (Q04338 whole entry, chain 3 of 3): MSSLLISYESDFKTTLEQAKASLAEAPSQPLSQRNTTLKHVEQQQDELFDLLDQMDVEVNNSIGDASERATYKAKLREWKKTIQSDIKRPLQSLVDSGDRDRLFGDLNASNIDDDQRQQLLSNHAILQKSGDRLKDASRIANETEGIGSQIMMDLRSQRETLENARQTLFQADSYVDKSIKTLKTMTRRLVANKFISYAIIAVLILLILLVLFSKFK

binding result (His6-Sec18): binds
binding result [1]: binds
B1: Sec17 (natural protein, UniProt P32602 1-292, looked up)
chain: MSDPVELLKRAEKKGVPSSGFMKLFSGSDSYKFEEAADLCVQAATIYRLRKELNLAGDSFLKAADYQKKAGNEDEAGNTYVEAYKCFKSGGNSVNAVDSLENAIQIFTHRGQFRRGANFKFELGEILENDLHDYAKAIDCYELAGEWYAQDQSVALSNKCFIKCADLKALDGQYIEASDIYSKLIKSSMGNRLSQWSLKDYFLKKGLCQLAATDAVAAARTLQEGQSEDPNFADSRESNFLKSLIDAVNEGDSEQLSEHCKEFDNFMRLDKWKITILNKIKESIQQQEDDLL
notes: Sec17, yeast, YBL050W; Plasmid from Schwartz and Merz, 2009; also called Sec17/SNAP; wild-type Sec17; source: E. coli Rosetta2(DE3), purified (chitin resin, DTT cleavage, dialysed into Rb150)
